Patent US8697416B2, “Recombinant polynucleotide, host cells containing the same and a process for producing a protein having aldolase activity” (Ajinomoto Co., Inc., priority 2002, dated 2014)
Read-outs that look alike come from different tables or passages of the source.

B1: PtALD: aldolase derived from Pseudomonas taetrolens ATCC4683, amino acid sequence SEQ ID No: 2 or 3; recombinant, purified in Example 4 (protein, listed as Pseudomonas taetrolens)
chain: MEVAMSLPGSRIYPSPPQAPRSLLDAFQNVVTPHISDNLGRHIGARGLTRYNHTGKLVGTALTVKTRPGDNLYIYKALTLIEPGHVLVIDAQGDATNAVIGELIKLYAQQRGCVGFVVDGAIRDVASFEDTPCYARSVVHCGPYKSGPGEINVPVSIGGMIINPGDIIVGDEDGLVAFSPDHAEQVLVKAREHDAHEQQVKAEIATGAIDQSWLDKVLEKAGLAN
B2: PcALD: aldolase derived from Pseudomonas coronafaciens strain AJ2791, amino acid sequence SEQ ID No: 16; recombinant, purified in Example 5 (protein, listed as Pseudomonas coronafaciens)
chain: MKCHSVIWFSAWPHPIISREKSHMTIGFRVLSAARKVSPEWVARYRDVPVANVSDSMNRMTAGGSRLRPMHRAGVLAGPALTVKARPGDNLMLHYAIDIAQPGDVIVVDAGGDLTNALIGEMMVAYAVKRGVAGIVINGAIRDAASIGAGDFPMFAAGVSHRGPYKDGPGEINVPIAIDGMVIEAGDLVIGDDDGLLCVPYDQVAEVYDRAAAKHHAEQKQLEQIAKGENDRSWVLESLKKKGCQLPE

Columns and labels:
[1] = Temperature stability of PtALD (residual activity); type: physicochemical; conditions: 30 minutes incubation, pH 7.0 and pH 9.0
Experimental: Residual activity was measured under the basic measurement conditions after incubating PtALD at 25 to 70° C. for 30 minutes in 100 mM potassium phosphate buffer (pH 7.0) and 100 mM glycine-NaOH buffer (pH 9.0).

[2] = Optimum pH of PtALD aldolase activity; type: biochemical; conditions: at 33° C.
Experimental: More specifically, aldolase activity may be estimated according to the following steps of adding aldolase to a reaction solution composed of 100 mM buffer, 50 mM indole-3-pyruvic acid, 250 mM pyruvic acid, 1 mM MgCl2 and 1% (v/v) toluene; and shaking while reaction at 33° C. for 4 hours; and then quantifying the amount of IHOG formed by HPLC.

[3] = pH stability of PtALD (residual activity); type: physicochemical; conditions: 37° C., 30 minutes, 100 mM buffers
Experimental: pH stability was measured over a range of pH 3 to pH 11. The buffers used for measurement were as follows: sodium acetate buffer (pH 3, 4, 5, 6), potassium phosphate buffer (pH 6, 6.5, 7, 7.5), Tris-HCl buffer (pH 7, 7.5, 8, 8.5), glycine-NaOH buffer (pH 9, 9.5, 10), CAPS-NaOH buffer (pH 10, 10.5, 11). The residual activity after incubating PtALD at 37° C. for 30 minutes in each of the buffer solutions at a concentration of 100 mM was measured under the basic reaction conditions.

[4] = Enzymatic properties of PtALD: kinetics constants when using PHOG as substrate; type: biochemical
Experimental: Basic reaction conditions: 50 mM Hepes-KOH (pH 8.0), 2 mM PHOG, 5 mM MgCl2, 3 mM KPB (pH 8), 16 U/ml of lactate dehydrogenase, measure a optical absorbance at 340 nm measured at 30° C.
The aldolase activity increased by 2.7 times as compared with a non-addition lot following addition of 1 mM MgCl2, and increased 2 times as compared with a non-addition lot following addition of 5 mM KPB.

[5] = Aldol condensation activity of pyruvic acid for various substrates using PtALD (ESI-MS); type: biochemical; conditions: 50 mM substrate, 250 mM sodium pyruvate, 0.1 mg/ml PtALD, pH 9, 33° C., 2 hours; substrates of Tables 11 and 12
Experimental: The aldol condensation activity of pyruvic acid was measured for the various substrates shown in Table 11 using the PtALD produced in Example 4. A reaction solution was prepared composed of 100 mM glycine-NaOH (pH 9), 50 mM substrate, 250 mM sodium pyruvate, 1 mM MgCl2 and 0.1 mg/ml PtALD, and incubated at 33° C. for 2 hours. The resulting reaction solution was subjected to ultrafiltration with an ultrafiltration membrane, Microcon 10 (Amicon) for a fraction molecular weight of 10000. 2 μl of the filtrate was diluted in 200 μl of 50% acetonitrile/0.1% aqueous ammonia solution followed by ESI-MS analysis.

[6] = Synthesis of IHOG from indole-3-pyruvic acid and pyruvic acid using purified PtALD and PcALD; type: biochemical; conditions: PtALD 1.8 U/ml, PcALD 0.8 U/ml, pH 8.5, 33° C., 4 hours
Experimental: 4-(Indol-3-ylmethyl)-4-hydroxy-2-oxoglutarate (IHOG) was synthesized from indole-3-pyruvic acid and pyruvic acid using the PtALD and PcALD produced in Examples 4 and 5 as enzyme sources. The amount of IHOG was determined by HPLC analysis using the “Inertsil ODS-2” (GL Sciences Inc., 5 μm, 4.6×250 mm). The analysis conditions are as indicated below.
Mobile phase: 40% (v/v) acetonitrile/5 mM tetrabutyl
ammonium dihydrogen phosphate solution
Column temperature: 40° C.
PtALD and PcALD were added at 1.8 U/ml and 0.8 U/ml, respectively, to a reaction solution comprised of 100 mM Hepes-KOH (pH 8.5), 50 mM indole-3-pyruvic acid, 250 mM pyruvic acid and 1 mM to 5 mM MgCl2, and allowed to react at 33° C. for 4 hours. The enzyme reaction solution was suitably diluted and the amount of IHOG formed was quantified. As a result, IHOG was able to be formed from the aldolases.

[7] = Aldol condensation activity of PtALD using acetaldehyde and α-ketobutyrate (ESI-MS); type: biochemical; conditions: 50 mM acetoaldehyde, 250 mM α-ketobutyrate, 0.1 mg/ml PtALD, pH 9, 33° C., 16 hours
Experimental: The aldol condensation activity of the PtALD prepared in Example 4 was measured using acetaldehyde and α-ketobutyrate. A reaction solution composed of 100 mM glycine-NaOH (pH 9), 50 mM acetoaldehyde, 250 mM α-ketobutyrate, 1 mM MgCl2 and 0.1 mg/ml PtALD was prepared, and it was incubated at 33° C. for 16 hours. The resulting reaction solution was subjected to ultrafiltration with an ultrafiltration membrane, Microcon 10 (Amicon) for a fraction molecular weight of 10000. 10 μl of the filtrate was diluted in 200 μl of 50% acetonitrile/0.1% aqueous ammonia solution followed by ESI-MS analysis.

| Molecule | temperature stability [1] [°C] | optimum pH [2] | pH stability (pH) [3] | Increase of aldolase activity as compared with a non-addition lot ([4]; addition of 1 mM MgCl2) [times] | Increase of aldolase activity as compared with a non-addition lot ([4]; addition of 5 mM KPB) [times] | Ka (for KPi) ([4]; pH 8.0, 30° C.) [mM] | Vmax (for PHOG) ([4]; pH 8.0, 30° C.) [µmol/min/mg] | Km ([4]; pH 8.0, 30° C., read-out: Km (for MgCl2)) [µM] | Km ([4]; pH 8.0, 30° C., read-out: Km (for PHOG)) [µM] | Formation of pyruvic acid aldol condensates for various substrates [5] | IHOG formed ([6]; MgCl2 1 mM) [mM] | IHOG formed ([6]; MgCl2 5 mM) [mM] | Formation of aldol condensate from acetaldehyde and α-ketobutyrate [7] |
| --- | --- | --- | --- | --- | --- | --- | --- | --- | --- | --- | --- | --- | --- |
| B1 | ≤ 70 | about 9 | ≥ 6 | 2.7 | 2 | 0.95 | 91.7 | 19 | 100 | the desired pyruvic acid aldol condensates were formed | 11.4 | 10.5 | formation of the desired aldol condensate |
| B2 |  |  |  |  |  |  |  |  |  |  | 4.9 | 5.4 |  |
